# From patent US20050255113A1, “Methods and compositions for inhibiting polypeptide accumulation associated with neurological disorders” (New York State Department of Health and Abgenix, Inc., priority 1999, published 2005)
# Assays:
# [1] = tested on: N-terminal HD sequence (Nt-HD); assay: ELISA of sFv binding to immobilized GST-fusion proteins / biotinylated Nt-HD peptide; details: plates with streptavidin, GST-HD-42Q, GST-HD-65Q, GST-DRPLA-35Q
# Description: As described in Example 2, four rounds of selection were performed with decreasing concentrations of antigen at each round (100 nM, 50 nM, 10 nM, 1 nM). After the third round, bacterial clones were screened to isolate those which secreted sFv molecules specific to the N-terminal HD sequence. Screening was performed by ELISA. Bacterial supernatants containing secreted sFv were incubated with either 2% bovine serum albumin (BSA), as negative control, or with 2% BSA containing biotinylated antigen (0.1 μg/well, final concentration) in pre-blocked microtiter plates overnight at 4° C. The mixtures were then transferred to streptavidin-coated (0.1 μg/well, final concentration) microtiter plates. […] Bound IgG was detected with alkaline phosphatase conjugated to goat anti-mouse IgG.
# Four rounds of selection were performed with decreasing concentrations of antigen at each round (i.e., 100 nM, 50 nM, 10 nM, 1 nM). […] Bound sFv was detected with α-9E10 IgG followed by alkaline phosphatase conjugated goat anti-mouse IgG.
# To characterize the precise binding properties of the intrabody of the invention, further qualitative and quantitative studies of sFv binding to immobilized antigen were conducted in vitro. […] The kinetics of association and dissociation were determined for the C4 sFv antibody in the BIAcore 2000 (FIG. 11B).
# [2] = tested on: model huntingtin polypeptide (HD-25Q-GFP, pHD-104Q-GFP, HD-Q104-myc, GFP-HD-Q104); assay: Intrabody retargeting of model huntingtin polypeptide in co-transfected COS-7 cells (immunofluorescence); format: cell-based; details: co-transfected mammalian cells
# model huntingtin polypeptide (HD-25Q-GFP, pHD-104Q-GFP, HD-Q104-myc, GFP-HD-Q104), sequence (as listed by the source): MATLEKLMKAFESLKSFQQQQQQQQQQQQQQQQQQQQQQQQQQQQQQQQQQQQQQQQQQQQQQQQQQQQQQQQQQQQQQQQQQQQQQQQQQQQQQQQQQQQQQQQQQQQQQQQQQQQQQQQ
# Description: COS 7 cells were grown on cover glass in 6-well plates (10^5 cells/well) and co-transfected at a ratio of 3:1 (sFv to target) with plasmids containing either N-HD-C4 sFv or a negative control sFv (containing an HA tag and SV40 nuclear localization sequence (NLS)) and plasmids containing GFP-targeted fusion proteins using 5 μl SuperFect transfection reagent (QIAGEN). At 24 hours post-transfection, cells were prepared for immunofluorescence as follows: cells were fixed with 4% paraformaldehyde and permeabilized with 0.2% triton-X100. To prevent non-specific binding of secondary antibodies, cells were blocked with 10% normal goat serum in 3% BSA.
# The assay is designed such that both the target antigen, i.e., the model huntingtin polypeptide, and the intrabody can be visualized. In particular, the huntingtin polypeptide is visualized by detecting fluorescence emitted by the GFP domain of the huntingtin-GFP fusion polypeptide and the intrabodies tested are visualized using a rhodamine-conjugated antibody that can specifically bind to the intrabody.
# The model HD target polypeptide was fused to c-myc (EQKLISEEDL (SEQ ID NO: 45)) epitope tag (HD-Q104-myc). The intrabodies sequences were fused to a HA tag and a SV40 nuclear localization signal (sFv-HA-NLS), so that bound antigens should be retargeted to the cell nuclei. At 48 hours post-transfection, cells were fixed and permeabilized. The HD-Q104-myc proteins were detectable using anti-myc epitope antibodies (i.e., MAb 9E10 IgG), followed by FITC-labeled goat anti-mouse IgG. The sFv-HA-NLS intrabodies were detected by polyclonal rabbit anti-HA IgG followed by rhodamine-conjugated goat anti-rabbit IgG antibodies.
# FIGS. 13A-F show stably transfected COS-7 cells expressing α-Nt-HD-C4 sFv-HA-NLS which were further transfected with plasmids encoding either the model altered huntingtin polypeptide with 104 glutamine repeats (FIGS. 13B, D, F) or the model altered DRPLA polypeptide with 81 glutamine repeats (FIGS. 13A, C, E). Both model altered polypeptides were fused to GFP (GFP-HD-Q104 and GFP-DRPLA-Q81, respectively).
# [3] = tested on: HD-72Q-GFP protein expression; assay: Immunoblot of HD-72Q-GFP protein expression in co-transfections; format: cell-based; details: 5:1 co-transfections, 24 hours, different transfection paradigms
# Description: Some aggregates are found in 104Q co-transfections (never in 25Q), often in cells not expressing C4 (arrowheads), but in some dually-transfected cells as well (arrow). […] Cell lysates were collected from 5:1 co-transfections (sFv:HD-72Q-GFP) in duplicate at 24 hours (prior to prominent aggregate formation and loss of HD-72Q-GFP to the insoluble compartment) and subjected to SDS-PAGE. The membrane was probed with 1:1000 […] primary antibody (Quantum), stripped and reprobed with 1:500 anti-actin antibody (Sigma). HD-72Q-GFP bands were of similar intensity after detection by HRP-conjugated secondary antibody and chemiluminescence.
# The typical intrabody constructs were fused to a C-terminal hemagglutinin (HA) peptide tag to facilitate immunodetection of the protein, while keeping the protein localized to the cytosol. […] The diffuse labeling was also characteristic of the normal length (25Q) construct, with or without intrabody co-transfection (FIG. 15).
molecule,measurement,setting,value
"C4 sFv: human single-chain Fv intrabody from phage display, specific for the 17 N-terminal residues of huntingtin; SEQ ID NO: 6 (protein) scFv: QVQLQESGGGLVQPGGSLRLSCAASGFTFSSYSMSWVRQAPGKGLEWVAVISYDGSNKYYADSVKGRFTISRDNSKNTLYLQMNSLRAEDTAVYYCARDRYFDLWGRGTLVTVSSGGGGSGGGGSGGGGSQSALTQPASVSGSPGQSITISCTGTSSDIGAYNYVSWYQQYPGKAPKLLIYDVSNRPSGISNRFSGSKSGDTASLTISGLQAEDEADYYCSSFANSGPLFGGGTKVTVL",ELISA binding specificity,[1],binds specifically to the N-terminal HD sequence
same,ELISA binding specificity,[1]; listed as cc-Nt-HD-C4 sFv,reacted preferentially with antigens containing the Nt-HD flanking peptide sequence
same,retargeting of altered huntingtin polypeptide with 104 glutamines (pHD-104Q-GFP),[2],can specifically retarget the cellular distribution of the model altered huntingtin polypeptide
same,HD protein expression level,[3],indistinguishable levels of products
